The source of these data is article PMC3136518, “Single-Molecule Fluorescence Polarization Study of Conformational Change in Archaeal Group II Chaperonin” (PLoS ONE, 2011).

This series concerns the molecule itself. Description: rotary-shadowing electron microscopy; chaperonin (50 µg/mL) directly immobilised on plasma-cleaned coverslip, washed with HKM buffer [25 mM HEPES-KOH (pH 7.4), 100 mM KCl, 5 mM MgCl2] and 50% glycerol, shadowed at 5° with platinum and carbon; coverslip without chaperonin as negative control.

B1: αD263C/Q271C/C366S-His, the double-cysteine mutant of Thermococcus sp. strain KS-1 (T. KS-1) α chaperonin with internal hexahistidine tags (complex, UniProt P61112 1-548, looked up)
chain: MAQLSGQPVVILPEGTQRYVGRDAQRLNILAARIIAETVRTTLGPKGMDKMLVDSLGDIVVTNDGATILDKIDLQHPAAKMMVEVAKTQDKEAGDGTTTAVVIAGELLRKAEELLDQNIHPSIIIKGYALAAEKAQEILDEIAIRVDPDDEETLLKIAATSITGKNAESHKELLAKLAVEAVKQVAEKKDGKYVVDLDNIKFEKKAGEGVEESELVRGVVIDKEVVHPRMPKRVENAKIALINEALEVKKTETDAKINITSPCQLMSFLECEEKMLKDMVDHIAQTGANVVFVQKGIDDLAQHYLAKYGIMAVRRVKKSDMEKLAKATGAKIVTNVKDLTPEDLGYAEVVEERKLAGENMIFVEGSKNPKAVTILIRGGTEHVIDEVERALEDAVKVVKDVMEDGAVLPAGGAPEIELAIRLDEYAKQVGGKEALAIENFADALKIIPKTLAENAGLDTVEMLVKVISEHKNRGLGIGIDVFEGKPADMLEKGIIEPLRVKKQAIKSASEAAIMILRIDDVIAAKATKPEGGQGGGMPGGMGGMDMGM
notes: Group II chaperonin (thermosome) α subunit of Thermococcus sp. strain KS-1, amino acids 1-548, the entire α subunit amplified from plasmid pK1Eα2; hexa-histidine inserted between Val146 and Asp147; Homo-oligomeric double ring; The results call the sample of the electron microscopy BSR-CPN (cysteines 263 and 271 cross-linked by BSR, about 0.3 dye per hexadecamer); the methods name the unlabelled …
Regarding B1, the binding result is on record as “binds”.
